Source: patent US20030129189A1, “Tumor necrosis factor-gamma” (priority 1994, published 2003)
Where two headings read alike, the source gives them in different places. Each block holds one molecule with its values, some of them ahead of it.

Columns and labels:
HUVEC cells = test: Induction of TNF-gamma-beta mRNA in HUVEC cells; type: cell-based, human; details: for time of peak in expression of TNF-gamma-beta mRNA: after treatment; for TNF-gamma-beta mRNA level: stimulated HUVEC cells
Procedure: More TNF-gamma-beta mRNA was detected than that of TNF-gamma-alpha using both methods.
Total RNA was isolated from human cell lines and primary cells using TriZOL (Invitrogen). TaqMan was carried out in a 25 μl reaction containing 25 ng of total RNA, 0.6 μM each of gene-specific forward and reverse primers and 0.2 μM of gene-specific fluorescence probe. […] Gene-specific PCR products were measured using an ABI PRISM 7700 Sequence Detection System following the manufacturer's instruction (PE Corp.).

TNF-gamma-beta [1] = target: T1, TNF-gamma-beta (Homo sapiens, UniProt O95150); test: Inhibition of TNF-gamma-beta activation of NF-κB in 293T cells; type: cell-based
T1 construct: made in house; host or cells: E. coli (untagged) or 293T (FLAG-tagged)
T1 sequence (O95150 72-251): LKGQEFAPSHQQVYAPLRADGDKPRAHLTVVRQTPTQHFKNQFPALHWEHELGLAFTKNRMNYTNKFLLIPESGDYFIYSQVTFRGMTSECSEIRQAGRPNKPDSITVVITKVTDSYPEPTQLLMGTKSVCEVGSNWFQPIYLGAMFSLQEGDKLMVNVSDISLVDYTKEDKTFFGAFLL
Procedure: To avoid spontaneous apoptosis or NF-κB activation accompanied with DR3 overexpression, a limited amount of DR3-expression DNA that by itself minimally activated these pathways was used.
293T cells were transiently transfected using LipofectAMINE and PLUS reagents according to the manufacturer's instruction (Invitrogen). For reporter assays, 293T cells, at 5×10^5 cells/well, were seeded in 6-well plates and transfected with a total of 1 microgram of DNA. pC4 DNA was used as filler DNA. Conditioned supernatant was collected 24 hr post-transfection and assayed for secreted alkaline phosphatase (SEAP) activity using the Phospha-Light™ chemiluminescent reporter gene assay system (Tropix). pCMV-lacZ was used as internal control for transfection efficiency normalization.

TNF-gamma-beta [2] = target: T2, TNF-gamma-beta (Homo sapiens, UniProt O95150); test: Coimmunoprecipitation of TNF-gamma-beta by TNFR-Fc proteins; type: binding
T2 construct: made in house; host or cells: 293T cells, transient transfection
T2 sequence (O95150 72-251 limits assumed): T1 sequence (O95150 72-251)
Excerpt: The beads were then precipitated and washed extensively with PBST buffer (PBS, 0.5% Triton X-100) before boiled in SDS-sample buffer. Proteins were resolved on 4-20% Tris-Glycine gels (NOVEX), transferred to nitrocellulose membranes, and blotted with anti-Flag M2 monoclonal antibody (1 microgram/ml, Sigma) andhorseradish peroxidase (HRP)-conjugated goat anti-mouse IgG antibody (0.5 microgram/ml).

[3] = target: T3, full length TNF-gamma-beta on the cell surface (HEK293F stable transfectants; transfected cells) (human, UniProt O95150 1-251); test: flow cytometry on HEK293F cells expressing full length TNF-gamma-beta
T3 construct: also called TNF-gamma-beta expressing cells
T3 sequence: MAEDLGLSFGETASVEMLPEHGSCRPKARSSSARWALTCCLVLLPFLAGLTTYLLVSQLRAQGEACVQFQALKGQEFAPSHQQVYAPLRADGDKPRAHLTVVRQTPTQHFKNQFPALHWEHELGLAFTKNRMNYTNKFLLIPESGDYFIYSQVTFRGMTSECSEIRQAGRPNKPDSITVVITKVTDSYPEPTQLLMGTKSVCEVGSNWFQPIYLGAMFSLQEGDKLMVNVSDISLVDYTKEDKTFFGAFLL
Procedure: TR6 has been previously described as a decoy receptor (Pitti et al., Nature 396:699-703 (1998); Yu et al., J. Biol. Chem. 274:13733-6 (1999)) capable of competing with Fas and HveA for binding of FasL and LIGHT, respectively.
One million cells, in 0.1 ml of FACS buffer (PBS, 0.1% BSA, 0.1% NaN₃), were incubated with 0.1-1 microgram of protein or antibody at RT for 15 min. The cells were washed with 3 ml of FACS buffer, reacted with biotinylated primary antibody, and stained with PE-conjugated secondary antibody at RT for 15 min. Cells were then washed again, resuspended in 0.5 microgram/ml of propidium iodide, and live cells were gated and analyzed on a FACScan using the CellQuest software (BD Biosciences).

CB6F1 mice = test: Parent-into-F1 acute graft-versus-host (in vivo MLR) model; design: species or system mouse; details: 3 mg/kg/day i.v. for 5 days
Procedure: Briefly, CB6F1 mice were injected with 1.5×10^8 pooled spleen cells of C57BL/6 mice administered intravenously on day 0.
The F1 (CB6F1) of C57BL/6×BALB/c mice (H-2^bxd) were transfused intravenously with 1.5×10^8 spleen cells from C57BL/6 mice (H-2^b) on day 0. […] The spleens of the recipient F1 mice were harvested on day 5, weighed and single cell suspensions prepared for in vitro assays.
Splenocytes from normal and the transfused F1 mice were cultured in triplicate in 96-well flat-bottomed plates (4×10^5 cells/200 microliters/well) for 2-4 days. After removing 100 microliters of supernatant per well on the day of harvest, 10 microliters Alamar Blue (Biosource) was added to each well and the cells cultured for additional 4 h. The cell number in each well was assessed according to OD590 nm minus OD530 nm background, using a CytoFluor apparatus (PerSeptive Biosystems). Cytokines in the culture supernatant were measured with commercial ELISA kits from Endogen or R & D Systems following manufacturer's instructions.

inhibition of TNF-gamma-beta activation of NF-κB (TNF-gamma-beta [1]): not able to inhibit
Molecule: TNFR1.Fc: Fc-fusion of TNFR1, control receptor [reference compound]
inhibition of TNF-gamma-beta activation of NF-κB (TNF-gamma-beta [1]; listed as TNFR1-Fc): but not by the addition of Fas-Fc or TNFR1-Fc

binding result [3]: no binding
B4: Fc-fusion form of the extracellular domain of AITR (Fc fusion, UniProt Q9Y5U5 26-162, looked up)
chain: QRPTGGPGCGPGRLLLGTGTDARCCRVHTTRCCRDYPGEECCSEWDCMCVQPEFHCGDPCCTTCRHHPCPPGQGVQSQGKFSFGFQCIDCASGTFSGGHEGHCKPWTDCTQFGFLTVFPGNKTHNAVCVPGSPPAEP
notes: extracellular domain; not shown: Fc part of the fusion

binding result [3]: no binding
B6: Fc-fusion form of the extracellular domain of DcR2 (Fc fusion, UniProt Q9UBN6 56-211, looked up)
chain: ATIPRQDEVPQQTVAPQQQRRSLKEEECPAGSHRSEYTGACNPCTEGVDYTIASNNLPSCLLCTVCKSGQTNKSSCTTTRDTVCQCEKGSFQDKNSPEMCRTCRTGCPRGMVKVSNCTPRSDIKCKNESAASSTGKTPAAEETVTTILGMLASPYH
notes: as for B4

binding result [3]: no binding
B7: Fc-fusion form of the extracellular domain of OX40 (Fc fusion, UniProt P43489 29-214, looked up)
chain: LHCVGDTYPSNDRCCHECRPGNGMVSRCSRSQNTVCRPCGPGFYNDVVSSKPCKPCTWCNLRSGSERKQLCTATQDTVCRCRAGTQPLDSYKPGVDCAPCPPGHFSPGDNQACKPWTNCTLAGKHTLQPASNSSDAICEDRDPPATQPQETQGPPARPITVQPTEAWPRTSQGPSTRPVEVPGGRA
notes: as for B4

binding result [3]: no binding
B8: TNFR1-Fc (Fc fusion, UniProt P19438 30-211, looked up)
chain: LVPHLGDREKRDSVCPQGKYIHPQNNSICCTKCHKGTYLYNDCPGPGQDTDCRECESGSFTASENHLRHCLSCSKCRKEMGQVEISSCTVDRDTVCGCRKNQYRHYWSENLFQCFNCSLCLNGTVHLSCQEKQNTVCTCHAGFFLRENECVSCSNCKKSLECTKLCLPQIENVKGTEDSGTT
notes: extracellular domain; also called Fc-fusion form of the extracellular domain of TNFR1; not shown: Fc part of the fusion

binding result [3]: no binding
B9: Fc-fusion form of the extracellular domain of RANK (Fc fusion, UniProt Q9Y6Q6 30-212, looked up)
chain: IAPPCTSEKHYEHLGRCCNKCEPGKYMSSKCTTTSDSVCLPCGPDEYLDSWNEEDKCLLHKVCDTGKALVAVVAGNSTTPRRCACTAGYHWSQDCECCRRNTECAPGLGAQHPLQLNKDTVCKPCLAGYFSDAFSSTDKCRPWTNCTFLGKRVEHHGTEKSDAVCSSSLPARKPPNEPHVYLP
notes: as for B4

binding result [3]: no binding
B11: Fc-fusion form of the extracellular domain of DcR1 (Fc fusion, UniProt O14798 26-221, looked up)
chain: ATTARQEEVPQQTVAPQQQRHSFKGEECPAGSHRSEHTGACNPCTEGVDYTNASNNEPSCFPCTVCKSDQKHKSSCTMTRDTVCQCKEGTFRNENSPEMCRKCSRCPSGEVQVSNCTSWDDIQCVEEFGANATVETPAAEETMNTSPGTPAPAAEETMNTSPGTPAPAAEETMTTSPGTPAPAAEETMTTSPGTPA
notes: as for B4

The remaining lines, values behind:

Molecule: CCCCCCCCCCCCCC(=O)O[C@@H]1[C@@H](C)[C@@]2(O)[C@@H](C=C(CO)C[C@]3(O)C(=O)C(C)=C[C@@H]23)[C@@H]2C(C)(C)[C@]12OC(C)=O [PMA, reference compound]
time of peak in expression of TNF-gamma-beta mRNA (HUVEC cells): 6 h
TNF-gamma-beta mRNA level (HUVEC cells): rapidly induced high levels of TNF-gamma-beta mRNA

Molecule: bFGF: growth factor stimulus of HUVEC cells [reference compound]
TNF-gamma-beta mRNA level (HUVEC cells): did not significantly affect the expression of TNF-gamma-beta

B1: IL-1α: cytokine stimulus of HUVEC cells (protein, UniProt P01583 113-271, looked up)
Interleukin-1 alpha: SAPFSFLSNVKYNFMRIIKYEFILNDALNQSIIRANDQYLTAAALHNLDEAVKFDMGAYKSSKDDAKITVILRISKTQLYVTAQDEDQPVLLKEMPEIPKTITGSETNLLFFWETHGTKNYFTSVAHPNLFIATKQDYWVCLAGGPPSITDFQILENQA
time of peak in expression of TNF-gamma-beta mRNA (HUVEC cells): 6 h
TNF-gamma-beta mRNA level (HUVEC cells): rapidly induced high levels of TNF-gamma-beta mRNA

B2: Fas-Fc: extracellular domain of Fas (aa 1-169) fused to Fc of human IgG1 (protein)
chain: QVTDINSKGLELRKTVTTVETQNLEGLHHDGQFCHKPCPPGERKARDCTVNGDEPDCVPCQEGKEYTDKAHFSSKCRRCRLCDEGHGLEVEINCTRTQNTKCRCKPNFFCNSTVCEHCDPCTKCEHGIIKECTLTSNTKCKEEG
modifications: left off: a dimerising Fc or GST
notes: extracellular domain of Fas (aa 1-169) fused to Fc of human IgG1
inhibition of TNF-gamma-beta activation of NF-κB (TNF-gamma-beta [1]): but not by the addition of Fas-Fc or TNFR1-Fc
immunoprecipitation of TNF-gamma-beta (TNF-gamma-beta [2]): could not immunoprecipitate FLAG-TNF-gamma-beta

B3: IFNγ: cytokine stimulus of HUVEC cells (protein, UniProt P01579 24-161, looked up)
Interferon gamma: QDPYVKEAENLKKYFNAGHSDVADNGTLFLGILKNWKEESDRKIMQSQIVSFYFKLFKNFKDDQSIQKSVETIKEDMNVKFFNSNKKKRDDFEKLTNYSVTDLNVQRKAIHELIQVMAELSPAAKTGKRKRSQMLFRG
TNF-gamma-beta mRNA level (HUVEC cells): did not significantly affect the expression of TNF-gamma-beta

B5: TACI-Fc: extracellular domain of TACI (aa 1-159) fused to Fc of human IgG1 (protein)
chain: MSGLGRSRRGGRSRVDQEERFPQGLWTGVAMRSCPEEQYWDPLLGTCMSCKTICNHQSQRTCAAFCRSLSCRKEQGKFYDHLLRDCISCASICGQHPKQCAYFCENKLRSPVNLPPELRRQRSGEVENNSDNSGRYQGLEHRGSEASPALPGLKLSADQ
modifications: left off: a dimerising Fc or GST
notes: extracellular domain of TACI (aa 1-159) fused to Fc of human IgG1
immunoprecipitation of TNF-gamma-beta (TNF-gamma-beta [2]): could not immunoprecipitate FLAG-TNF-gamma-beta

B10: TL5: another TNF family ligand used here as a control (protein, UniProt O43557 83-240, looked up)
Tumor necrosis factor ligand …: LIQERRSHEVNPAAHLTGANSSLTGSGGPLLWETQLGLAFLRGLSYHDGALVVTKAGYYYIYSKVQLGGVGCPLGLASTITHGLYKRTPRYPEELELLVSQQSPCGRATSSSRVWWDSSFLGGVVHLEAGEKVVVRVLDERLVRLRDGTRSYFGAFMV
IL-2 production vs buffer group (CB6F1 mice): neither TNF-gamma-beta nor TL5 show any significant effect
IL-12 production vs buffer group (CB6F1 mice): neither TNF-gamma-beta nor TL5 show any significant effect
spleen weight vs buffer group (CB6F1 mice): no statistically significant difference from buffer group
spontaneous (ex-vivo) splenocyte proliferation vs buffer group (CB6F1 mice): no statistically significant difference from buffer group
GM-CSF production vs buffer group (CB6F1 mice; splenocytes): no statistically significant difference from buffer group
INF-gamma production vs buffer group (CB6F1 mice; splenocytes): no statistically significant difference from buffer group
